Experimental data as given in patent US20220119506A1 (NOVOBIND LIVESTOCK THERAPEUTICS, published 2022).
Where a chain is given by its changes, count along the chain named.

B1: NBX0723 (VHH)
VHH: QVQLQESGGGLVQAGGSLRLSCAASGRTFSSYPMGWFRQAPGSEREQIAGISRSGVPGKYADSVSGRFTISRDNAKNTLYLQMNSLKPEDTAVYYCAARSIYSNNYSYWGQGTQVTVSS
notes: on phage in the phage ELISA
B2: NBX0722 (VHH)
VHH: B1 VHH with A23R, S43K, V56D, D62A, S100Q
notes: on phage in the phage ELISA
B3: NBX0724 (VHH)
VHH: B1 VHH with E6Q, P57S
notes: on phage in the phage ELISA
B4: NBX0725 (VHH)
VHH: B1 VHH with E6Q, A23T, S43K, V56N, S100Q
notes: on phage in the phage ELISA
B5: NBX0745 (VHH)
VHH: B1 VHH with S43K, V56D, D62A, S100E
notes: on phage in the phage ELISA
B6: NBX0746 (VHH)
VHH: B1 VHH with P33A, Q39R, S43K, V56N, S100Q
notes: on phage in the phage ELISA
B7: NBX0730 (VHH)
VHH: QVQLQESGGGLVQTGDSLRLACAASGRTFSSYPMAWYRQAPGQEREFVAGINRNGNIPVYADSVKGRFTISRDNAKNTVYLQMNNLKPEDTAVYYCAARTIYDSHYTSWGQGTQVTVSS
notes: on phage in the phage ELISA
B8: NBX0635 (VHH)
VHH: QVQLQESGGGLVQAGGSLRLSCATSGLTFSNYAMGWFRQAAGKEREFVATISWSGKSTRYADSVKGRFTISRDNAKNTVDLRMNSLKPEDTAVYYCAAEYQRLGLLRDGVADYSYWGQGTQVTVSS
notes: on phage in the phage ELISA
B9: NBX0618 (VHH)
VHH: QVQLQESGGGLVQPGGSLRLSCAASGSIFSFNAMGWYRQAPGKQRELVAAITKGGSTSYADSVKGRFTISVDNAKNTVYLQMNSLTPEDTAVYYCNVKTLRSALFPGYEYWGQGTQVTVSS
notes: on phage in the phage ELISA
B10: NBX0621 (VHH)
VHH: QVQLQESGGGLVQAGGSLRLSCAASGRTFSTYSMGWFRQVPGKEREFVAAIRWSGGSRTYADSVKGRFTISRDNTKNVVYLQMTSLKPEDTAVYYCAADRDGYSSYAHQYDYWGQGTQVTVSS
notes: on phage in the phage ELISA
B11: NBX0628 (VHH)
VHH: B10 VHH with E6Q, A14V, T31S, S33A, R52K, K65A, S105R
notes: on phage in the phage ELISA
B12: NBX0633 (VHH)
VHH: QVQLQESGGGLVQPGGSLRLSCTASGTIFRSKSMAWYRQAPGQGRETVAHISGLGHTNYVESVKGRFTVSRDDAKNAVYLQMSSLKPEDTAVYYCNTFTAAFSWGQGTQVTVSS
notes: on phage in the phage ELISA
B13: NBX0813 (VHH)
VHH: QVQLQESGGGLVQAGGSLRLSCVVSGMLFSIRNMRWYRQAPGKQRELVAQIGSSGNTDYVESVKGRFTISRDNAKNTVYLQMNSLKPEDTAVYFCNALNYWGKGTLVTVSS
notes: on phage in the phage ELISA
B14: NBX0821 (VHH)
VHH: B13 VHH with S53T, N56A, E61G, K64E, A74P, K103E
notes: on phage in the phage ELISA
B15: NBX0815 (VHH)
VHH: QVQLQESGGGLVQAGGSLRLSCAASGRTFSSYAMGWFRQSPGKDREFVAAVSWSGGSTYYADSLKGRFTISRDNAKNTVYLQMNSLKPEDTADYYCAAQRVMDYYRPRTESAYAYWGQGTRVTVSS
notes: on phage in the phage ELISA
B16: NBX0817 (VHH)
VHH: QVQLQESGGGLVQAGGSLRLSCGASGGTNSNYAMGWFRQPPGKKREFVAALSWSGYNTHYADSVKGRFTISRPSARTVDLQMNNVKPEDTAVYYCAARLSGRTAGSRTYYAEGQYDYRGQGTQVTVSS
notes: on phage in the phage ELISA
B17: NBX0820 (VHH)
VHH: QVQLQESGGGLVQTGGSLRLSCAASGRTFSNYVIGWFRQAPGKEREFVAAVGRGINSAYHATHYSESVKDRFTTSRDNAKNTGFLQMNSLKTEDTAVYYCAVTSRWGQFDRTDFNSWGQGTQVTVSS
notes: on phage in the phage ELISA
B18: NBX0822 (VHH)
VHH: QVQLQESGGGLVRPGDSLTLSCTYSGQTFTNSGMAWFRQRPGKEREFVAAVSRSGLGRRYADSVRGRFTITRDNGKNTANLQMDSLKPEDTAVYSCAATTLDWGPRGPYRYWGQGTQVTVSS
notes: on phage in the phage ELISA
B19: NBX0823 (VHH)
VHH: QVQLQQSGGGLVQTGGSLRLSCAASGSIFSIDFMGWYRQAPGNPREFVARIRGGNTYYADSVKGRFNISRDNAENTVYMQMNSLKSEDTAVYYCNAQITMRGGTWSTSEYWGQGTQVNVSS
notes: on phage in the phage ELISA
B20: NBX0824 (VHH)
VHH: QVQLQESGGGLVQAGGSLRLTCAASGRTLSSYLSSYAMGWFRQAPGKERESVATITWNGDRTLYADAVKGRFTISRDNAKNTVYLQMNSVIPEDTAVYYCAADTVGRWRSTLSVRDEYDYWGQGTQVTVAS
notes: on phage in the phage ELISA
B21: NBX0825 (VHH)
VHH: QVQLQESGGGVVETGGSLSVSCVASGRTFSAYTMAWFRQSPGKEREFVASMSRGSAAYYTDSVRGRFAISRVGDKNTVHLQMRDLKPEDTAVYYCAGGSPGSSQIATPEAYTYWGQGTQVTVSA
notes: on phage in the phage ELISA
B22: NBX0602 (VHH)
VHH: QVQLQESGGGLVQAGDSLRLSCAASGRTFSRYAMGWFRQAPGKEREFVAAVDWSGGSTAYADSVKGRFTISRDNAKNTVYLQMNSLKPDDTAVYYCAARARDVYGRAWYVEDSSTYDYWGQGTQVTVSS
notes: on phage in the phage ELISA

Molecular target: T1, VP28 (White spot syndrome virus)
T1 construct: Recombinant antigen; also called Coat protein VP28
T1 chain: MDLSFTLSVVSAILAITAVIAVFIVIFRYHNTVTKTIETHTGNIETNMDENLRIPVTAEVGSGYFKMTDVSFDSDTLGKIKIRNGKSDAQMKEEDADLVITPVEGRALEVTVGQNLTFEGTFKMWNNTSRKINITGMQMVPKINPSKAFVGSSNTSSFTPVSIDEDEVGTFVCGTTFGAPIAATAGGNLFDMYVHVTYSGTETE
Test: phage ELISA, antigen-coated wells

| Binder | binding above PBS-coated wells [%] |
| --- | --- |
| B1 | ≥ 50 |
| B2 | ≥ 50 |
| B3 | ≥ 50 |
| B4 | ≥ 50 |
| B5 | ≥ 50 |
| B6 | ≥ 50 |
| B7 | ≥ 50 |

Molecular target: T2, PirA (Vibrio parahaemolyticus)
T2 construct: also called JHE-like toxin PirA-like; vp19
T2 chain: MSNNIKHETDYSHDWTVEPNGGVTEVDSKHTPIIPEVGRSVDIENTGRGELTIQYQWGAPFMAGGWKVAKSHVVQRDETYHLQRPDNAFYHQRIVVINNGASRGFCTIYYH
Test: phage ELISA, antigen-coated wells

| Binder | binding above PBS-coated wells [%] |
| --- | --- |
| B8 | ≥ 50 |
| B9 | ≥ 50 |
| B10 | ≥ 50 |
| B11 | ≥ 50 |
| B12 | ≥ 50 |
| B13 | ≥ 50 |
| B14 | ≥ 50 |
| B15 | ≥ 50 |
| B16 | ≥ 50 |
| B17 | ≥ 50 |
| B18 | ≥ 50 |
| B19 | ≥ 50 |
| B20 | ≥ 50 |
| B21 | ≥ 50 |
| B22 | ≥ 50 |
